B2: V5/His6-tagged SMSr (enzyme, human, UniProt Q96LT4 1-415, looked up)
chain: MAGPNQLCIRRWTTKHVAVWLKDEGFFEYVDILCNKHRLDGITLLTLTEYDLRSPPLEIKVLGDIKRLMLSVRKLQKIHIDVLEEMGYNSDSPMGSMTPFISALQSTDWLCNGELSHDCDGPITDLNSDQYQYMNGKNKHSVRRLDPEYWKTILSCIYVFIVFGFTSFIMVIVHERVPDMQTYPPLPDIFLDSVPRIPWAFAMTEVCGMILCYIWLLVLLLHKHRSILLRRLCSLMGTVFLLRCFTMFVTSLSVPGQHLQCTGKIYGSVWEKLHRAFAIWSGFGMTLTGVHTCGDYMFSGHTVVLTMLNFFVTEYTPRSWNFLHTLSWVLNLFGIFFILAAHEHYSIDVFIAFYITTRLFLYYHTLANTRAYQQSRRARIWFPMFSFFECNVNGTVPNEYCWPFSKPAIMKRLIG
notes: SMSr (SAMD8), ceramide phosphoethanolamine synthase, human, UniProt Q96LT4; the cDNA was PCR amplified and cloned with a C-terminal V5/His6 tag; also called SMSr-V5; SAMD8; source: HeLa, transfected (pcDNA3.1/V5-His TOPO), in detergent extract; not shown: V5, C-terminal, kept; His6, C-terminal, kept

Data set [1] deals with the molecule itself. The data set can be described thus: cross-linking; intact HeLa cells (wild-type or SMSr-/-) treated with DSP (0-50 μM, 15 min, RT), lysed with detergent and 10 mM NEM; anti-HA or anti-V5 immunoprecipitation or Ni-NTA, immunoblot against the same tag. (In general: A western blot detects proteins with antibodies after separation by electrophoresis.)
Data set [2] deals with the molecule itself. The data set can be described thus: SDS-resistant oligomers on SDS-PAGE of affinity-purified protein; HeLa cells transfected with one V5(/His6)-tagged construct; anti-V5 immunoprecipitates or Ni-NTA eluates, non-reducing SDS-PAGE, anti-V5 immunoblot; no cross-linker; oligomers mostly lost with 10 mM NEM in lysis or 100 mM DTT.
The data set “V5/His6-tagged SMSr” deals with B2. The data set can be described thus: co-IP; detergent extracts of HeLa cells co-transfected with HA-tagged and V5/His6-tagged constructs; anti-V5 immunoprecipitation, immunoblot with anti-V5 and anti-HA; non-reducing SDS-PAGE; no NEM named. The settings on record: partners not purified.
Data set [3] deals with the molecule itself. The data set is described as follows: cross-linking; yeast cells expressing V5/His6-tagged SMSr treated with DSP (0-50 μM, 15 min), lysed, anti-V5 immunoblot.

Several values for one entry are separate records, joined by “and”; a condition that tells them apart may be missing. Equal values may be shown once.

B1: V5/His6-tagged SMSrΔSAM (domain or fragment, human, UniProt Q96LT4 79-415, looked up)
chain: HIDVLEEMGYNSDSPMGSMTPFISALQSTDWLCNGELSHDCDGPITDLNSDQYQYMNGKNKHSVRRLDPEYWKTILSCIYVFIVFGFTSFIMVIVHERVPDMQTYPPLPDIFLDSVPRIPWAFAMTEVCGMILCYIWLLVLLLHKHRSILLRRLCSLMGTVFLLRCFTMFVTSLSVPGQHLQCTGKIYGSVWEKLHRAFAIWSGFGMTLTGVHTCGDYMFSGHTVVLTMLNFFVTEYTPRSWNFLHTLSWVLNLFGIFFILAAHEHYSIDVFIAFYITTRLFLYYHTLANTRAYQQSRRARIWFPMFSFFECNVNGTVPNEYCWPFSKPAIMKRLIG
notes: SMSr (SAMD8), human, UniProt Q96LT4, without the first 78 N-terminal residues (SAM domain deleted); also called SMSrΔSAM-V5; SAM-domain truncation mutant; source: HeLa, transfected, in detergent extract; not shown: V5, C-terminal, kept; His6, C-terminal, kept
The term stoichiometry N denotes the number of molecules, sites or subunits per partner or assembly. For B1, the “stoichiometry N” value in data set [1] was determined as 2.

As for B2, the “stoichiometry N” value in data set [2] is 3 and 6.

B3: HA-tagged SMSr^D348E (enzyme, human, UniProt Q96LT4 1-415, looked up)
chain: MAGPNQLCIRRWTTKHVAVWLKDEGFFEYVDILCNKHRLDGITLLTLTEYDLRSPPLEIKVLGDIKRLMLSVRKLQKIHIDVLEEMGYNSDSPMGSMTPFISALQSTDWLCNGELSHDCDGPITDLNSDQYQYMNGKNKHSVRRLDPEYWKTILSCIYVFIVFGFTSFIMVIVHERVPDMQTYPPLPDIFLDSVPRIPWAFAMTEVCGMILCYIWLLVLLLHKHRSILLRRLCSLMGTVFLLRCFTMFVTSLSVPGQHLQCTGKIYGSVWEKLHRAFAIWSGFGMTLTGVHTCGDYMFSGHTVVLTMLNFFVTEYTPRSWNFLHTLSWVLNLFGIFFILAAHEHYSIEVFIAFYITTRLFLYYHTLANTRAYQQSRRARIWFPMFSFFECNVNGTVPNEYCWPFSKPAIMKRLIG
notes: SMSr (SAMD8), human, UniProt Q96LT4, with D348E; also called enzyme-dead SMSr; source: SMSr-/- HeLa, transfected, in detergent extract; not shown: HA, C-terminal, kept
Turning to B3, the “stoichiometry N” value in data set [1] was 6 and 3.

B4: HA-tagged SMSr^L62E/G63D/K66E (SMSr^OD) (enzyme, human, UniProt Q96LT4 1-415, looked up)
chain: MAGPNQLCIRRWTTKHVAVWLKDEGFFEYVDILCNKHRLDGITLLTLTEYDLRSPPLEIKVEDDIERLMLSVRKLQKIHIDVLEEMGYNSDSPMGSMTPFISALQSTDWLCNGELSHDCDGPITDLNSDQYQYMNGKNKHSVRRLDPEYWKTILSCIYVFIVFGFTSFIMVIVHERVPDMQTYPPLPDIFLDSVPRIPWAFAMTEVCGMILCYIWLLVLLLHKHRSILLRRLCSLMGTVFLLRCFTMFVTSLSVPGQHLQCTGKIYGSVWEKLHRAFAIWSGFGMTLTGVHTCGDYMFSGHTVVLTMLNFFVTEYTPRSWNFLHTLSWVLNLFGIFFILAAHEHYSIDVFIAFYITTRLFLYYHTLANTRAYQQSRRARIWFPMFSFFECNVNGTVPNEYCWPFSKPAIMKRLIG
notes: SMSr (SAMD8), human, UniProt Q96LT4, with L62E, G63D and K66E; also called oligomerization-defective triple mutant; source: HeLa (wild-type or SMSr-/-), transfected, in detergent extract; not shown: HA, C-terminal, kept
Take B4: the “stoichiometry N” value in data set [1] is 6 and 3 and 2.

B5: HA-tagged SMSr (enzyme, human, UniProt Q96LT4 1-415, looked up)
chain: MAGPNQLCIRRWTTKHVAVWLKDEGFFEYVDILCNKHRLDGITLLTLTEYDLRSPPLEIKVLGDIKRLMLSVRKLQKIHIDVLEEMGYNSDSPMGSMTPFISALQSTDWLCNGELSHDCDGPITDLNSDQYQYMNGKNKHSVRRLDPEYWKTILSCIYVFIVFGFTSFIMVIVHERVPDMQTYPPLPDIFLDSVPRIPWAFAMTEVCGMILCYIWLLVLLLHKHRSILLRRLCSLMGTVFLLRCFTMFVTSLSVPGQHLQCTGKIYGSVWEKLHRAFAIWSGFGMTLTGVHTCGDYMFSGHTVVLTMLNFFVTEYTPRSWNFLHTLSWVLNLFGIFFILAAHEHYSIDVFIAFYITTRLFLYYHTLANTRAYQQSRRARIWFPMFSFFECNVNGTVPNEYCWPFSKPAIMKRLIG
notes: SMSr (SAMD8), ceramide phosphoethanolamine synthase, human, UniProt Q96LT4; also called SMSr-HA; full-length SMSr-HA; source: HeLa (wild-type or SMSr-/-), transfected, in detergent extract; not shown: HA, C-terminal, kept
Consider B5, for which the “stoichiometry N” value with V5/His6-tagged SMSr is 3 and 6; in data set [1], 3 and 6.

B6: V5/His6-tagged SMSr expressed in yeast (enzyme, human, UniProt Q96LT4 1-415, looked up)
chain: MAGPNQLCIRRWTTKHVAVWLKDEGFFEYVDILCNKHRLDGITLLTLTEYDLRSPPLEIKVLGDIKRLMLSVRKLQKIHIDVLEEMGYNSDSPMGSMTPFISALQSTDWLCNGELSHDCDGPITDLNSDQYQYMNGKNKHSVRRLDPEYWKTILSCIYVFIVFGFTSFIMVIVHERVPDMQTYPPLPDIFLDSVPRIPWAFAMTEVCGMILCYIWLLVLLLHKHRSILLRRLCSLMGTVFLLRCFTMFVTSLSVPGQHLQCTGKIYGSVWEKLHRAFAIWSGFGMTLTGVHTCGDYMFSGHTVVLTMLNFFVTEYTPRSWNFLHTLSWVLNLFGIFFILAAHEHYSIDVFIAFYITTRLFLYYHTLANTRAYQQSRRARIWFPMFSFFECNVNGTVPNEYCWPFSKPAIMKRLIG
notes: SMSr (SAMD8), human, UniProt Q96LT4; also called SMSr-V5; pYES2.1/SMSr-V5-His TOPO; source: Saccharomyces cerevisiae IAY11, transformed (pYES2.1/SMSr-V5-His TOPO), in lysate
Consider B6, for which the “stoichiometry N” value in data set [3] was 3 and 6.

For the origin of these results see paper PMC5264588, “ER residency of the ceramide phosphoethanolamine synthase SMSr relies on homotypic oligomerization mediated by its SAM domain” (Scientific Reports, 2017).
